Earlier results in PMC6728138.

Key:
[1] = molecular target: AKAP79 (Homo sapiens) (UniProt P24588)
[2] = molecular target: PVIVIT peptide (synthetic construct)

AKAP79 (Homo sapiens), sequence (P24588 whole entry): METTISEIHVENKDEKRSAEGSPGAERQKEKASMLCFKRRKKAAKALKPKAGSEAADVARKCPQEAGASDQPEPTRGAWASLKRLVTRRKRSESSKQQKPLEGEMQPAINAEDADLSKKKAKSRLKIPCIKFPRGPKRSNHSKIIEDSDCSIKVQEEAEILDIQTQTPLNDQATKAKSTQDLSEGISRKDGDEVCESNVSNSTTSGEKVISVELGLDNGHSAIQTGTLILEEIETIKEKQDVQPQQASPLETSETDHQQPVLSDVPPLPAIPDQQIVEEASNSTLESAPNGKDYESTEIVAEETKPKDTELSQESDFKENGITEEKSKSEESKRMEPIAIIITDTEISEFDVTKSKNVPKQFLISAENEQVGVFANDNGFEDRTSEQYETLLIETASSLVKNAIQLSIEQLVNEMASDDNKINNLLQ

- Kd [1]: 500 nM
- Kd [2]: 500 nM
Substance: Calcineurin (from UniProt Q08209)
